Patent publication US20230257470A1 (published 2023)

T1: human FcγRIIb (human, UniProt P31994 43-217, limits assumed)
T1 construct: also called FcgRIIb; FcγIIB
T1 sequence: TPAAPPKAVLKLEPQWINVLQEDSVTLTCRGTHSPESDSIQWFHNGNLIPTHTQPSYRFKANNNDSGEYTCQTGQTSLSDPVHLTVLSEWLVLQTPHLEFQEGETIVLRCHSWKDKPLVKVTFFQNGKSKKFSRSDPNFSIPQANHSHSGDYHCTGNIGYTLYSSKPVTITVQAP

T2: human FcγRIIa type H (human, UniProt P12318 36-217)
T2 construct: also called FcgRIIaH; FcγRIIa(H)
T2 sequence: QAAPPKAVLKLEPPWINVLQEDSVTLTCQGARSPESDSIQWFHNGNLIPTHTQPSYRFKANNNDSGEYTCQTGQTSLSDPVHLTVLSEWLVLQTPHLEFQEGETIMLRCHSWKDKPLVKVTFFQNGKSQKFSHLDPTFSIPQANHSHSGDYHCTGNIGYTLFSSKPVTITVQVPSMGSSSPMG

T3: human FcγRIIa type R (human, UniProt P12318 36-217)
T3 construct: also called FcgRIIaR; FcγRIIa(R)
T3 chain: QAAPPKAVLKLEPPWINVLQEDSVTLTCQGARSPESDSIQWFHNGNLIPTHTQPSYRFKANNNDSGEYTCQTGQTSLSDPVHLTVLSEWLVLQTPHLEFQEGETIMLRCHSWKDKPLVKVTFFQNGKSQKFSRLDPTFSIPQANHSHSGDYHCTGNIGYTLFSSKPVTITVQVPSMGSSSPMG


Key:
Experiment in all cases: SPR (Biacore), FcγR over captured antibody; binding amount divided by that of IL6R-BF648/IL6R-L x 100
human FcγRIa = molecular target: T4, human FcγRIa (human, UniProt P12314 16-292, limits assumed)
T4 construct: also called FcgRIa; FcγRI (CD64)
Description: (§1) According to the following method, relative binding activities were calculated for the results of analyzing interactions with the respective FcγRs.

human FcγRIIIa type V = molecular target: T5, human FcγRIIIa type V (human, UniProt P08637 17-208, limits assumed)
T5 construct: also called FcgRIIIaV; FcγRIIIa(V)
Description: as §1

human FcγRIIb = molecular target: T1, human FcγRIIb
Description: as §1

human FcγRIIa type H = molecular target: T2, human FcγRIIa type H
Description: as §1

human FcγRIIa type R = molecular target: T3, human FcγRIIa type R
Description: as §1

T4 sequence (P12314 16-292 limits assumed): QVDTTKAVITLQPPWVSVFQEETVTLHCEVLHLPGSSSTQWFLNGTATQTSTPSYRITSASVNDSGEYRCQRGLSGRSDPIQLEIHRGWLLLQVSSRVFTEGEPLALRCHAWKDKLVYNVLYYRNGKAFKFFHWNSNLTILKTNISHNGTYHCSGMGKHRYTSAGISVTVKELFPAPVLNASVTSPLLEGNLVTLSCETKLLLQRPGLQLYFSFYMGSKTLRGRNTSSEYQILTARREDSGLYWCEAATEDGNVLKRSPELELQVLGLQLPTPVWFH
T5 sequence (P08637 other isoform, or with tags, fused parts or gaps limits assumed): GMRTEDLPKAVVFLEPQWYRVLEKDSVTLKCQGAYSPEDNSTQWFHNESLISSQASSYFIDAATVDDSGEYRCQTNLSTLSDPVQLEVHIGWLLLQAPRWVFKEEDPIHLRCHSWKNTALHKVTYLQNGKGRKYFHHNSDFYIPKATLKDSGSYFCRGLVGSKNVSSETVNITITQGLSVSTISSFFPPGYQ

Row | Binder | relative binding activity (human FcγRIa) | relative binding activity (human FcγRIIIa type V) | relative binding activity (human FcγRIIb) | relative binding activity (human FcγRIIa type H) | relative binding activity (human FcγRIIa type R)
1 | IL6R-BP083/IL6R-L (antibody, human IgG1, name in EU numbering, copies: 2 + 2) heavy: QVQLQESGPGLVKPSETLSLTCAVSGHSISHDHAWSWVRQPPGEGLEWIGFISYSGITNYNPSLQGRVTISRDNSKNTLYLQMNSLRAEDTAVYYCARSLARTTAMDYWGEGTLVTVSSASTKGPSVFPLAPSSKSTSGGTAALGCLVKDYFPEPVTVSWNSGALTSGVHTFPAVLQSSGLYSLSSVVTVPSSSLGTQTYICNVNHKPSNTKVDKKVEPKSCDKTHTCPPCPAPELLGGDSVFLFPPKPKDTLMISRTPEVTCVVVDVSHEDPEVKFNWYVDGVEVHNAKTKPREEQDNSTYRVVSVLTVLHQDWLNGKEYKCKVSNKALPKPIEKTISKAKGQPREPQVYTLPPSRDELTKNQVSLTCLVKGFYPSDIAVEWESNGQPENNYKTTPPVLDSDGSFFLYSKLTVDKSRWQQGNVFSCSVMHEALHNHYTQESLSLSP light: DIQMTQSPSSLSASVGDRVTITCRASQDISSYLNWYQQKPGKAPKLLIYYTSRLHSGVPSRFSGSGSGTDFTFTISSLQPEDIATYYCQQGNTLPYTFGQGTKVEIK | 50 relative (IL6R-BF648/IL6R-L = 100) | 107 relative (IL6R-BF648/IL6R-L = 100) | 122 relative (IL6R-BF648/IL6R-L = 100) | 91 relative (IL6R-BF648/IL6R-L = 100) | 87 relative (IL6R-BF648/IL6R-L = 100)
2 | IL6R-BP084/IL6R-L (antibody, human IgG1, name in EU numbering, copies: 2 + 2) heavy: QVQLQESGPGLVKPSETLSLTCAVSGHSISHDHAWSWVRQPPGEGLEWIGFISYSGITNYNPSLQGRVTISRDNSKNTLYLQMNSLRAEDTAVYYCARSLARTTAMDYWGEGTLVTVSSASTKGPSVFPLAPSSKSTSGGTAALGCLVKDYFPEPVTVSWNSGALTSGVHTFPAVLQSSGLYSLSSVVTVPSSSLGTQTYICNVNHKPSNTKVDKKVEPKSCDKTHTCPPCPAPELLGGDSVFLFPPKPKDTLMISRTPEVTCVVVDVSHEDPEVKFNWYVDGVEVHNAKTKPREEQYNSTYRVVSVLTVLHQDWLNGKEYKCKMSNKALPKPIEKTISKAKGQPREPQVYTLPPSRDELTKNQVSLTCLVKGFYPSDIAVEWESNGQPENNYKTTPPVLDSDGSFFLYSKLTVDKSRWQQGNVFSCSVMHEALHNHYTQESLSLSP light: DIQMTQSPSSLSASVGDRVTITCRASQDISSYLNWYQQKPGKAPKLLIYYTSRLHSGVPSRFSGSGSGTDFTFTISSLQPEDIATYYCQQGNTLPYTFGQGTKVEIK | 109 relative (IL6R-BF648/IL6R-L = 100) | 106 relative (IL6R-BF648/IL6R-L = 100) | 141 relative (IL6R-BF648/IL6R-L = 100) | 162 relative (IL6R-BF648/IL6R-L = 100) | 203 relative (IL6R-BF648/IL6R-L = 100)
3 | IL6R-BP085/IL6R-L (antibody, human IgG1, name in EU numbering, copies: 2 + 2) heavy: QVQLQESGPGLVKPSETLSLTCAVSGHSISHDHAWSWVRQPPGEGLEWIGFISYSGITNYNPSLQGRVTISRDNSKNTLYLQMNSLRAEDTAVYYCARSLARTTAMDYWGEGTLVTVSSASTKGPSVFPLAPSSKSTSGGTAALGCLVKDYFPEPVTVSWNSGALTSGVHTFPAVLQSSGLYSLSSVVTVPSSSLGTQTYICNVNHKPSNTKVDKKVEPKSCDKTHTCPPCPAPELLGDDSVFLFPPKPKDTLMISRTPEVTCVVVDVSHEDPEVKFNWYVDGVEVHNAKTKPREEQYNSTYRVVSVLTVLHQDWLNGKEYKCKVSNKALPKPIEKTISKAKGQPREPQVYTLPPSRDELTKNQVSLTCLVKGFYPSDIAVEWESNGQPENNYKTTPPVLDSDGSFFLYSKLTVDKSRWQQGNVFSCSVMHEALHNHYTQESLSLSP light: DIQMTQSPSSLSASVGDRVTITCRASQDISSYLNWYQQKPGKAPKLLIYYTSRLHSGVPSRFSGSGSGTDFTFTISSLQPEDIATYYCQQGNTLPYTFGQGTKVEIK | 19 relative (IL6R-BF648/IL6R-L = 100) | 104 relative (IL6R-BF648/IL6R-L = 100) | 152 relative (IL6R-BF648/IL6R-L = 100) | 158 relative (IL6R-BF648/IL6R-L = 100) | 279 relative (IL6R-BF648/IL6R-L = 100)
4 | IL6R-BP086/IL6R-L (antibody, human IgG1, name in EU numbering, copies: 2 + 2) heavy: QVQLQESGPGLVKPSETLSLTCAVSGHSISHDHAWSWVRQPPGEGLEWIGFISYSGITNYNPSLQGRVTISRDNSKNTLYLQMNSLRAEDTAVYYCARSLARTTAMDYWGEGTLVTVSSASTKGPSVFPLAPSSKSTSGGTAALGCLVKDYFPEPVTVSWNSGALTSGVHTFPAVLQSSGLYSLSSVVTVPSSSLGTQTYICNVNHKPSNTKVDKKVEPKSCDKTHTCPPCPAPELLGGDSVFLFPPKPKDTLMISRTPEVTCVVVDVSHEDPEVKFNWYVDGVEVHNAKTKPREEQYNSTYRVVSVLTVLHQDWLNGKEYKCKVSNAALPKPIEKTISKAKGQPREPQVYTLPPSRDELTKNQVSLTCLVKGFYPSDIAVEWESNGQPENNYKTTPPVLDSDGSFFLYSKLTVDKSRWQQGNVFSCSVMHEALHNHYTQESLSLSP light: DIQMTQSPSSLSASVGDRVTITCRASQDISSYLNWYQQKPGKAPKLLIYYTSRLHSGVPSRFSGSGSGTDFTFTISSLQPEDIATYYCQQGNTLPYTFGQGTKVEIK | 72 relative (IL6R-BF648/IL6R-L = 100) | 123 relative (IL6R-BF648/IL6R-L = 100) | 137 relative (IL6R-BF648/IL6R-L = 100) | 116 relative (IL6R-BF648/IL6R-L = 100) | 155 relative (IL6R-BF648/IL6R-L = 100)
5 | IL6R-BP087/IL6R-L (antibody, human IgG1, name in EU numbering, copies: 2 + 2) heavy: QVQLQESGPGLVKPSETLSLTCAVSGHSISHDHAWSWVRQPPGEGLEWIGFISYSGITNYNPSLQGRVTISRDNSKNTLYLQMNSLRAEDTAVYYCARSLARTTAMDYWGEGTLVTVSSASTKGPSVFPLAPSSKSTSGGTAALGCLVKDYFPEPVTVSWNSGALTSGVHTFPAVLQSSGLYSLSSVVTVPSSSLGTQTYICNVNHKPSNTKVDKKVEPKSCDKTHTCPPCPAPEYLGGDSVFLFPPKPKDTLMISRTPEVTCVVVDVSHEDPEVKFNWYVDGVEVHNAKTKPREEQYNSTYRVVSVLTVLHQDWLNGKEYKCKVSNKALPKPIEKTISKAKGQPREPQVYTLPPSRDELTKNQVSLTCLVKGFYPSDIAVEWESNGQPENNYKTTPPVLDSDGSFFLYSKLTVDKSRWQQGNVFSCSVMHEALHNHYTQESLSLSP light: DIQMTQSPSSLSASVGDRVTITCRASQDISSYLNWYQQKPGKAPKLLIYYTSRLHSGVPSRFSGSGSGTDFTFTISSLQPEDIATYYCQQGNTLPYTFGQGTKVEIK | 33 relative (IL6R-BF648/IL6R-L = 100) | 158 relative (IL6R-BF648/IL6R-L = 100) | 137 relative (IL6R-BF648/IL6R-L = 100) | 179 relative (IL6R-BF648/IL6R-L = 100) | 163 relative (IL6R-BF648/IL6R-L = 100)
6 | IL6R-BP088/IL6R-L (antibody, human IgG1, name in EU numbering, copies: 2 + 2) heavy: QVQLQESGPGLVKPSETLSLTCAVSGHSISHDHAWSWVRQPPGEGLEWIGFISYSGITNYNPSLQGRVTISRDNSKNTLYLQMNSLRAEDTAVYYCARSLARTTAMDYWGEGTLVTVSSASTKGPSVFPLAPSSKSTSGGTAALGCLVKDYFPEPVTVSWNSGALTSGVHTFPAVLQSSGLYSLSSVVTVPSSSLGTQTYICNVNHKPSNTKVDKKVEPKSCDKTHTCPPCPAPELLGDDSVFLFPPKPKDTLMISRTPEVTCVVVDVSHEDPEVKFNWYVDGVEVHNAKTKPREEQYNSTYRVVSVLTVLHQDWLNGKEYKCKVSNAALPKPIEKTISKAKGQPREPQVYTLPPSRDELTKNQVSLTCLVKGFYPSDIAVEWESNGQPENNYKTTPPVLDSDGSFFLYSKLTVDKSRWQQGNVFSCSVMHEALHNHYTQESLSLSP light: DIQMTQSPSSLSASVGDRVTITCRASQDISSYLNWYQQKPGKAPKLLIYYTSRLHSGVPSRFSGSGSGTDFTFTISSLQPEDIATYYCQQGNTLPYTFGQGTKVEIK | 25 relative (IL6R-BF648/IL6R-L = 100) | 122 relative (IL6R-BF648/IL6R-L = 100) | 161 relative (IL6R-BF648/IL6R-L = 100) | 166 relative (IL6R-BF648/IL6R-L = 100) | 377 relative (IL6R-BF648/IL6R-L = 100)
7 | IL6R-BP089/IL6R-L (antibody, human IgG1, name in EU numbering, copies: 2 + 2) heavy: QVQLQESGPGLVKPSETLSLTCAVSGHSISHDHAWSWVRQPPGEGLEWIGFISYSGITNYNPSLQGRVTISRDNSKNTLYLQMNSLRAEDTAVYYCARSLARTTAMDYWGEGTLVTVSSASTKGPSVFPLAPSSKSTSGGTAALGCLVKDYFPEPVTVSWNSGALTSGVHTFPAVLQSSGLYSLSSVVTVPSSSLGTQTYICNVNHKPSNTKVDKKVEPKSCDKTHTCPPCPAPEYLGGDSVFLFPPKPKDTLMISRTPEVTCVVVDVSHEDPEVKFNWYVDGVEVHNAKTKPREEQYNSTYRVVSVLTVLHQDWLNGKEYKCKVSNAALPKPIEKTISKAKGQPREPQVYTLPPSRDELTKNQVSLTCLVKGFYPSDIAVEWESNGQPENNYKTTPPVLDSDGSFFLYSKLTVDKSRWQQGNVFSCSVMHEALHNHYTQESLSLSP light: DIQMTQSPSSLSASVGDRVTITCRASQDISSYLNWYQQKPGKAPKLLIYYTSRLHSGVPSRFSGSGSGTDFTFTISSLQPEDIATYYCQQGNTLPYTFGQGTKVEIK | 43 relative (IL6R-BF648/IL6R-L = 100) | 136 relative (IL6R-BF648/IL6R-L = 100) | 147 relative (IL6R-BF648/IL6R-L = 100) | 186 relative (IL6R-BF648/IL6R-L = 100) | 222 relative (IL6R-BF648/IL6R-L = 100)
